The record followed here is patent publication US20230235054A1 (BIOATLA, published 2023).

Read-outs that look alike come from different tables or passages of the source.

Assay [1] deals with T1, cynoNectin4-mFc (cyno, UniProt A0A2K5WES1 32-349).
T1 construct: Immobilized on the SPR chip; also called cyanoNectin4; not shown: mFc (mouse Fc)
T1 sequence: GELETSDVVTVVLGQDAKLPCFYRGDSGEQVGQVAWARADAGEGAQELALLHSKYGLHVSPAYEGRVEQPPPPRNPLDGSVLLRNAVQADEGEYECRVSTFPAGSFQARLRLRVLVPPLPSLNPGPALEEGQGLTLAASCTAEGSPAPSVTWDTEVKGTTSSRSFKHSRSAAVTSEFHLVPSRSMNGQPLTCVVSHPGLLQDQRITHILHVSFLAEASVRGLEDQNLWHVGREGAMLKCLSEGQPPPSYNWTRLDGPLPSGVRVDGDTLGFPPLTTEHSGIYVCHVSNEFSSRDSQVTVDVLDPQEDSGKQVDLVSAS
Kind of assay: SPR, cynoNectin4-mFc immobilized, pH 6.5. The procedure:
(§1) Binding kinetics of anti-Nectin4 antibodies were measured by surface plasmon resonance using a SPR2/4 instrument (Sierra Sensors, Hamburg, Germany) and flat amine sensor chips. The SPR sensor contained four flow cells (FC1-FC4), each of which was addressed individually or in groups. huNectin4-His was immobilized in FC2, and cynoNectin4-mFc in FC4. No protein was immobilized in FC1 and FC3 which were used as control surfaces for FC2 and FC4, respectively.
(§2) All injections were done at a flow rate of 25 μL/min at 25° C. The sensor surface was activated with 1-ethyl-3-(3-dimethylaminopropyl)-carbodiimide (EDC) and N-hydroxysuccinimide (NHS) (200 mM/50 mM) for 480 seconds. HuNectin4-His (2 μg/mL in 10 mM NaAc, pH4.5) was injected for 480s and the surface was inactivated by injecting 1M ethanolamine-HCl for 480s. CynoNectin4 was immobilized using the same conditions as described for huNectin4-His, except that the cynoNectin4 was diluted into 10 mM NaAc buffer having pH 5.0. The control surface was activated and deactivated using the same conditions, but without injecting protein. PBST buffer (PBS pH 7.4 with 0.05% TWEEN20™) was used as running buffer for the surface preparation. The running solution was switched to PBST with 30 mM sodium bicarbonate with the pH adjusted as indicated in the figures before the analyte injections. The instrument was equilibrated with the running solution for one hour before the first analyte injection.
(§3) The off-rate was measured for 360s. The chip surface was regenerated after each cycle of interaction analysis by injecting 6 μL of 10 mM glycine (pH 2.0). Flow cells 1 and 3 without immobilized protein were used as control surfaces for reference subtraction.

Assay [2] addresses T1, cynoNectin4-mFc. Kind of assay: SPR, cynoNectin4-mFc immobilized, pH 6.5. The procedure:
as §1, §2, §3
This is another data set of the same source. On the technique in general: Surface plasmon resonance follows binding to a sensor surface in real time, without labels.

Assay [3] has as its target T2, huNectin4-His (human, UniProt Q96NY8 32-349).
T2 construct: Immobilized on the SPR chip; also called humanNectin4; human Nectin4; not shown: His tag
T2 sequence (looked up): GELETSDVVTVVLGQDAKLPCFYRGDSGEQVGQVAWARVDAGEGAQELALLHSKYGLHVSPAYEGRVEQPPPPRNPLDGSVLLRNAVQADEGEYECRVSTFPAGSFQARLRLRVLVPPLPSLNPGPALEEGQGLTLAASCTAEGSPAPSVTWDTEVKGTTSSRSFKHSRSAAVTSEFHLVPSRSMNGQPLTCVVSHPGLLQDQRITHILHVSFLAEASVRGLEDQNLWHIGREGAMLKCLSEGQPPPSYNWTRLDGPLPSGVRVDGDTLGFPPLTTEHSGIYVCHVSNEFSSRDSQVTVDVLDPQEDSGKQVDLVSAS
The assay can be described thus: SPR, huNectin4-His immobilized, pH 6.5. Here is the method: as §1, §2, §3

Assay [4] addresses T3, RatNectin4-His (rat, UniProt D3ZET1 31-348).
T3 construct: Immobilized on the SPR chip; not shown: His tag
T3 sequence: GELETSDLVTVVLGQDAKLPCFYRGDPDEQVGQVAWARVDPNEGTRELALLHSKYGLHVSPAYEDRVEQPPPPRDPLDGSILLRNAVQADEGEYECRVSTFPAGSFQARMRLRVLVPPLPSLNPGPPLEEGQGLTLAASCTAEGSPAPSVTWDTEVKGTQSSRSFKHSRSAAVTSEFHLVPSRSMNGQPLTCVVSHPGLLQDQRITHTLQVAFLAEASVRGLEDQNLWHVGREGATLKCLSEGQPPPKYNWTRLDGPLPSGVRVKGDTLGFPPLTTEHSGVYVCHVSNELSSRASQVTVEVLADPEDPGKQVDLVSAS
The assay can be described thus: SPR, RatNectin4-His immobilized, pH 6.0. Here is the method:
as §2, §3
In addition, data with buffer only as analyte (0 nM analyte) was subtracted from each run. Double subtracted data was fitted with the provided analysis software Analyzer R2 (Sierra Sensors) using a 1:1 binding model. A molecular weight of 150 kDa was used to calculate the molar concentrations of the analytes. RatNectin4-His was immobilized in FC3 using the same conditions as described for cynoNectin4.

Assay [5] addresses T2, huNectin4-His. Kind of assay: SPR, huNectin4-His immobilized, pH 6.0. The procedure: as §1, §2, §3

Usually Kd stands for a measure of binding affinity in units of concentration. High values mean weaker binding, low ones tighter binding. In general, koff refers to the first-order rate constant of dissociation. A lower koff goes with slow dissociation. What is called kon is the rate constant with which the complex forms.

B1: BAP-143-00-01 (antibody, V domains shown)
VH: EVQLVESGGGLVQPGGSLRLSCAASGFTFSSYNMNWVRQAPGKGLEWVSYISSSSSTIYYADSVKGRFTISRDNAKNSLSLQMNSLRDEDTAVYYCARAYYYGMDVWGQGTTVTVSS
VL: DIQMTQSPSSVSASVGDRVTITCRASQGISGWEAWYQQKPGKAPKFLIYAASTLQSGVPSRFSGSGSGTDFTLTISSLQPEDFATYYCQQANSFPPTFGGGTKVEIK
notes: Used as a conjugate with a linker payload (CAB ADC)
For B1, the Kd in assay [1] came to 2.94 nM; in assay [2], 1.88 nM; in assay [3] it was 5.15 nM; in assay [4], 1.17 nM; in assay [5], 12.3 nM. In addition, the koff came to 0.00134 s⁻¹ in assay [1]; 0.000859 s⁻¹ in assay [2]; 0.00245 s⁻¹ in assay [3]; 0.00159 s⁻¹ in assay [4]; 0.00367 s⁻¹ in assay [5]. For the same molecule, the kon in assay [1] amounted to 457000 M⁻¹ s⁻¹; in assay [2], 457000 M⁻¹ s⁻¹; in assay [3], 476000 M⁻¹ s⁻¹; in assay [4] it was 1.36e+06 M⁻¹ s⁻¹; in assay [5], 298000 M⁻¹ s⁻¹.
